Test [1] addresses SNT-1 PTB domain (residues 11-140 of SEQ ID NO:1) (human) (UniProt Q8WU20). As to the kind of experiment: method not stated.
Test [2] addresses T1, SNT-1 PTB domain (residues 11-140 of SEQ ID NO:1) (human, UniProt Q8WU20 11-140).
T1 construct: Recombinant from E. coli, isotope labelled for NMR; His6 tag cleaved with thrombin; Used in NMR and ITC; also called PTB Domain of SNT-1; SNT PTB domain
T1 sequence: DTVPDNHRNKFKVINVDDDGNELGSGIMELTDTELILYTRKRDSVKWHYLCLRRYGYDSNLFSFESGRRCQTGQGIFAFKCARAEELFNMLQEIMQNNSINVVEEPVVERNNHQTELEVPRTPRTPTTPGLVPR
As to the kind of experiment: isothermal titration calorimetry (ITC).

Test [3] has as its target T2, juxtamembrane region of hFGFR1 as GAL4 DNA binding domain (BD) fusion protein, wild type (called hFGFR1 (human); SEQ ID NO:2 is …).
T2 construct: Yeast two-hybrid construct; also called wild type hFGFR1
As to the kind of experiment: yeast two-hybrid, colony growth on His-, Leu-, Trp- medium. As for the experimental part: Mutagenesis and Yeast Two-Hybrid Binding Assays: The yeast two-hybrid binding studies of the SNT-1 PTB domain binding to hFGFR1 or tyrosine-phosphorylated TRK were performed as described previously [Xu et al., J. Biol. Chem. 273:17987-17990 (1998)]. Briefly, SNT-1 cDNA fragments were cloned into the pACT2 expression vector (Clontech) for expression as GAL4 DNA activation domain (AD) fusion proteins followed by C-terminal AU1-epitope tags. The juxtamembrane region of hFGFR1 was cloned into the pAS2-1 expression vector (Clontech) for expression as a GAL4 DNA binding domain (BD) fusion protein. This plasmid served as a template for site-directed mutagenesis of hFGFR1 using the QuikChange kit (Stratagene). DNA sequencing confirmed the mutations. AD and BD plasmids were co-transformed into Saccharomyces cerevisiae strain pJ69-4A and plated onto selective media. The synthetic medium lacking the amino acids Leu and Trp (Leu⁻, Trp⁻) selected for plasmid uptake. […] Levels of protein interaction were scored by relative colony growth on these plates. […] Similarly, expression of wild type and mutant hFGFR1 was detected by immunoprecipitation with a rabbit polyclonal antibody specific for BD (Santa Cruz Biotech) and western blotting with mouse monoclonal anti-BD antibody (Santa Cruz Biotech).

Consider “tyrosine-phosphorylated peptide LVIAGNPApYRS (SEQ ID NO:4)”, for which, in test [1], the Kd was 1 µM and the fold higher affinity than for the FGFR derived peptide of SEQ ID NO:3 stood at 10 fold.

B1: hFGFR1 peptide, 22-residue peptide derived from the juxtamembrane region of hFGFR1 (residues 409-430 of SEQ ID NO:2), HSQMAVHKLAKSIPLRRQVTVS (SEQ ID NO:3) (peptide)
peptide: HSQMAVHKLAKSIPLRRQVTVS
notes: Synthetic peptide, not phosphorylated; also called FGFR peptide; FGF receptor peptide
B1 registered a Kd in test [2] of approximately 10 µM.

B2: truncated SNT-1 PTB domain lacking the β8 region (residues 2-111), GAL4 AD fusion (other, not shown: large carriers; small tags and cut ends)
chain: GSCCSCPDKDTVPDNHRNKFKVINVDDDGNELGSGIMELTDTELILYTRKRDSVKWHYLCLRRYGYDSNLFSFESGRRCQTGQGIFAFKCARAEELFNMLQEIMQNNSIN
notes: Yeast two-hybrid construct; also called SNT-1 PTB domain protein lacking the β8 strand
As to B2, the binding result in test [3] was “no binding”.

Values taken from patent publication US20030040612A1 (MOUNT SINAI SCHOOL OF MEDICINE, published 2003).
